Results as given in patent publication US20130090286A1 (published 2013).
Where “and” joins values, the source holds several entries; their conditions need not be identical. Identical values can stand only once. Numbered stars: 1 amine (or outer) side, 2 acyl side, 3 side chain; on linkers, the order of the positions; unused ones are H or OH. Bridge positions count the residues as written; N and C are the ends. Square brackets hold non-standard residues; d marks the D form. Side chains are listed from the residue outwards. Ends that are not written are not given here. * marks the point of attachment. γGlu = O=C(O)[C@H](CCC(=O)[*:2])N[*:1]; Palmitoyl = CCCCCCCCCCCCCCCC(=O)*; DMIA = not defined here; Aib = CC(C)(N)C(=O)O

B1: Chi-2, AIB2, I7, Lys10 γE-γE-C16 (SEQ ID NO: 650) (peptide)
peptide: H[Aib]QGTFISDK([γGlu-γGlu-Palmitoyl])SKYLDEQAAKEFIAWLMNT-NH2
modifications: N-terminus assumed
SMILES: CCCCCCCCCCCCCCCC(=O)N[C@@H](CCC(=O)N[C@@H](CCC(=O)NCCCC[C@H](NC(=O)[C@H](CC(=O)O)NC(=O)[C@H](CO)NC(=O)[C@@H](NC(=O)[C@H](Cc1ccccc1)NC(=O)[C@@H](NC(=O)CNC(=O)[C@H](CCC(N)=O)NC(=O)C(C)(C)NC(=O)[C@@H](N)Cc1c[nH]cn1)[C@@H](C)O)[C@@H](C)CC)C(=O)N[C@@H](CO)C(=O)N[C@@H](CCCCN)C(=O)N[C@@H](Cc1ccc(O)cc1)C(=O)N[C@@H](CC(C)C)C(=O)N[C@@H](CC(=O)O)C(=O)N[C@@H](CCC(=O)O)C(=O)N[C@@H](CCC(N)=O)C(=O)N[C@@H](C)C(=O)N[C@@H](C)C(=O)N[C@@H](CCCCN)C(=O)N[C@@H](CCC(=O)O)C(=O)N[C@@H](Cc1ccccc1)C(=O)N[C@H](C(=O)N[C@@H](C)C(=O)N[C@@H](Cc1c[nH]c2ccccc12)C(=O)N[C@@H](CC(C)C)C(=O)N[C@@H](CCSC)C(=O)N[C@@H](CC(N)=O)C(=O)N[C@H](C(N)=O)[C@@H](C)O)[C@@H](C)CC)C(=O)O)C(=O)O
B2: Chi-2, AIB2, Lys10 γE-C16 (SEQ ID NO: 645) (peptide)
peptide: H[Aib]QGTFTSDK([γGlu-Palmitoyl])SKYLDEQAAKEFIAWLMNT-NH2
modifications: N-terminus assumed
SMILES: CCCCCCCCCCCCCCCC(=O)N[C@@H](CCC(=O)NCCCC[C@H](NC(=O)[C@H](CC(=O)O)NC(=O)[C@H](CO)NC(=O)[C@@H](NC(=O)[C@H](Cc1ccccc1)NC(=O)[C@@H](NC(=O)CNC(=O)[C@H](CCC(N)=O)NC(=O)C(C)(C)NC(=O)[C@@H](N)Cc1c[nH]cn1)[C@@H](C)O)[C@@H](C)O)C(=O)N[C@@H](CO)C(=O)N[C@@H](CCCCN)C(=O)N[C@@H](Cc1ccc(O)cc1)C(=O)N[C@@H](CC(C)C)C(=O)N[C@@H](CC(=O)O)C(=O)N[C@@H](CCC(=O)O)C(=O)N[C@@H](CCC(N)=O)C(=O)N[C@@H](C)C(=O)N[C@@H](C)C(=O)N[C@@H](CCCCN)C(=O)N[C@@H](CCC(=O)O)C(=O)N[C@@H](Cc1ccccc1)C(=O)N[C@H](C(=O)N[C@@H](C)C(=O)N[C@@H](Cc1c[nH]c2ccccc12)C(=O)N[C@@H](CC(C)C)C(=O)N[C@@H](CCSC)C(=O)N[C@@H](CC(N)=O)C(=O)N[C@H](C(N)=O)[C@@H](C)O)[C@@H](C)CC)C(=O)O
B3: DMIA1, E16/K20 lactam, Lys29 γE-γE-C16 (SEQ ID NO: 654) (peptide)
peptide: XSQGTFTSDYSKYLDERRAKDFVQWLMNK
modifications: DMIA at position 1; E16/K20 lactam; C16 fatty acyl on Lys29 via γ-Glu-γ-Glu spacer
B4: AIB2, AIB16, A18, D28, Lys10 γE-γE-C16 (SEQ ID NO: 655) (peptide)
peptide: H[Aib]QGTFTSDK([γGlu-γGlu-Palmitoyl])SKYLD[Aib]RAAQDFVQWLMDT-NH2
modifications: N-terminus assumed
SMILES: CCCCCCCCCCCCCCCC(=O)N[C@@H](CCC(=O)N[C@@H](CCC(=O)NCCCC[C@H](NC(=O)[C@H](CC(=O)O)NC(=O)[C@H](CO)NC(=O)[C@@H](NC(=O)[C@H](Cc1ccccc1)NC(=O)[C@@H](NC(=O)CNC(=O)[C@H](CCC(N)=O)NC(=O)C(C)(C)NC(=O)[C@@H](N)Cc1c[nH]cn1)[C@@H](C)O)[C@@H](C)O)C(=O)N[C@@H](CO)C(=O)N[C@@H](CCCCN)C(=O)N[C@@H](Cc1ccc(O)cc1)C(=O)N[C@@H](CC(C)C)C(=O)N[C@@H](CC(=O)O)C(=O)NC(C)(C)C(=O)N[C@@H](CCCNC(=N)N)C(=O)N[C@@H](C)C(=O)N[C@@H](C)C(=O)N[C@@H](CCC(N)=O)C(=O)N[C@@H](CC(=O)O)C(=O)N[C@@H](Cc1ccccc1)C(=O)N[C@H](C(=O)N[C@@H](CCC(N)=O)C(=O)N[C@@H](Cc1c[nH]c2ccccc12)C(=O)N[C@@H](CC(C)C)C(=O)N[C@@H](CCSC)C(=O)N[C@@H](CC(=O)O)C(=O)N[C@H](C(N)=O)[C@@H](C)O)C(C)C)C(=O)O)C(=O)O
B5: Chi-2, AIB2, E3, Lys10-C16, no spacer (SEQ ID NO: 647) (peptide)
peptide: H[Aib]EGTFTSDK(Palmitoyl)SKYLDEQAAKEFIAWLMNT-NH2
modifications: N-terminus assumed
SMILES: CCCCCCCCCCCCCCCC(=O)NCCCC[C@H](NC(=O)[C@H](CC(=O)O)NC(=O)[C@H](CO)NC(=O)[C@@H](NC(=O)[C@H](Cc1ccccc1)NC(=O)[C@@H](NC(=O)CNC(=O)[C@H](CCC(=O)O)NC(=O)C(C)(C)NC(=O)[C@@H](N)Cc1c[nH]cn1)[C@@H](C)O)[C@@H](C)O)C(=O)N[C@@H](CO)C(=O)N[C@@H](CCCCN)C(=O)N[C@@H](Cc1ccc(O)cc1)C(=O)N[C@@H](CC(C)C)C(=O)N[C@@H](CC(=O)O)C(=O)N[C@@H](CCC(=O)O)C(=O)N[C@@H](CCC(N)=O)C(=O)N[C@@H](C)C(=O)N[C@@H](C)C(=O)N[C@@H](CCCCN)C(=O)N[C@@H](CCC(=O)O)C(=O)N[C@@H](Cc1ccccc1)C(=O)N[C@H](C(=O)N[C@@H](C)C(=O)N[C@@H](Cc1c[nH]c2ccccc12)C(=O)N[C@@H](CC(C)C)C(=O)N[C@@H](CCSC)C(=O)N[C@@H](CC(N)=O)C(=O)N[C@H](C(N)=O)[C@@H](C)O)[C@@H](C)CC
B6: Chi-2, AIB2, I7, Lys10 γE-C16 (SEQ ID NO: 649) (peptide)
peptide: H[Aib]QGTFISDK([γGlu-Palmitoyl])SKYLDEQAAKEFIAWLMNT-NH2
modifications: N-terminus assumed
SMILES: CCCCCCCCCCCCCCCC(=O)N[C@@H](CCC(=O)NCCCC[C@H](NC(=O)[C@H](CC(=O)O)NC(=O)[C@H](CO)NC(=O)[C@@H](NC(=O)[C@H](Cc1ccccc1)NC(=O)[C@@H](NC(=O)CNC(=O)[C@H](CCC(N)=O)NC(=O)C(C)(C)NC(=O)[C@@H](N)Cc1c[nH]cn1)[C@@H](C)O)[C@@H](C)CC)C(=O)N[C@@H](CO)C(=O)N[C@@H](CCCCN)C(=O)N[C@@H](Cc1ccc(O)cc1)C(=O)N[C@@H](CC(C)C)C(=O)N[C@@H](CC(=O)O)C(=O)N[C@@H](CCC(=O)O)C(=O)N[C@@H](CCC(N)=O)C(=O)N[C@@H](C)C(=O)N[C@@H](C)C(=O)N[C@@H](CCCCN)C(=O)N[C@@H](CCC(=O)O)C(=O)N[C@@H](Cc1ccccc1)C(=O)N[C@H](C(=O)N[C@@H](C)C(=O)N[C@@H](Cc1c[nH]c2ccccc12)C(=O)N[C@@H](CC(C)C)C(=O)N[C@@H](CCSC)C(=O)N[C@@H](CC(N)=O)C(=O)N[C@H](C(N)=O)[C@@H](C)O)[C@@H](C)CC)C(=O)O
B7: Chi-2, AIB2, Lys10 γE-γE-C16 (SEQ ID NO: 646) (peptide)
peptide: H[Aib]QGTFTSDK([γGlu-γGlu-Palmitoyl])SKYLDEQAAKEFIAWLMNT-NH2
modifications: N-terminus assumed
SMILES: CCCCCCCCCCCCCCCC(=O)N[C@@H](CCC(=O)N[C@@H](CCC(=O)NCCCC[C@H](NC(=O)[C@H](CC(=O)O)NC(=O)[C@H](CO)NC(=O)[C@@H](NC(=O)[C@H](Cc1ccccc1)NC(=O)[C@@H](NC(=O)CNC(=O)[C@H](CCC(N)=O)NC(=O)C(C)(C)NC(=O)[C@@H](N)Cc1c[nH]cn1)[C@@H](C)O)[C@@H](C)O)C(=O)N[C@@H](CO)C(=O)N[C@@H](CCCCN)C(=O)N[C@@H](Cc1ccc(O)cc1)C(=O)N[C@@H](CC(C)C)C(=O)N[C@@H](CC(=O)O)C(=O)N[C@@H](CCC(=O)O)C(=O)N[C@@H](CCC(N)=O)C(=O)N[C@@H](C)C(=O)N[C@@H](C)C(=O)N[C@@H](CCCCN)C(=O)N[C@@H](CCC(=O)O)C(=O)N[C@@H](Cc1ccccc1)C(=O)N[C@H](C(=O)N[C@@H](C)C(=O)N[C@@H](Cc1c[nH]c2ccccc12)C(=O)N[C@@H](CC(C)C)C(=O)N[C@@H](CCSC)C(=O)N[C@@H](CC(N)=O)C(=O)N[C@H](C(N)=O)[C@@H](C)O)[C@@H](C)CC)C(=O)O)C(=O)O

Molecular target: glucagon receptor (UniProt P47871 26-477, limits assumed)
Test: cell-based or functional assay

glucagon receptor, sequence (P47871 26-477 limits assumed): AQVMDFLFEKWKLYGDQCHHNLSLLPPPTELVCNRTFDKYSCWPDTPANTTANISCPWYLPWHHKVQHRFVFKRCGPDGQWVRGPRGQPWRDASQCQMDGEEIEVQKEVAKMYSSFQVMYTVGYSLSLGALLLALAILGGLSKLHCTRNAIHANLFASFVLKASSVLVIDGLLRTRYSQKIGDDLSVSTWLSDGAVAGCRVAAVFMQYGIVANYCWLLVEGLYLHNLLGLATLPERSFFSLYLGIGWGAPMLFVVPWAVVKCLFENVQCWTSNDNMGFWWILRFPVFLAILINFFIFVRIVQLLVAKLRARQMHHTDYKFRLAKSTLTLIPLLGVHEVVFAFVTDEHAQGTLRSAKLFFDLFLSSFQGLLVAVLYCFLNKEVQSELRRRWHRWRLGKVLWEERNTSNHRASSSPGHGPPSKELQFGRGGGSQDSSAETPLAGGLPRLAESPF

Binder	in vitro activity EC50 [nM]
[DMIA]SQGTFTSDK([γGlu-Palmitoyl])SKYLDERRAKDFVQWLMNT (lactam 16-20; reading uncertain) [DMIA1, E16/K20 lactam, Lys10 γE-C16 (SEQ ID NO: 651)]	0.019
H[dS]QGTFTSDK([γGlu-γGlu-Palmitoyl])SKYLDEQAAKEFIAWLMNT [Chi-2, d-Ser2, Lys10 γE-γE-C16 (SEQ ID NO: 644)]	0.008
B1	0.007
B2	0.025
B3	0.025
H[Aib]QGTFTSDK([γGlu-Palmitoyl])SKYLD[Aib]RAAQDFVQWLMDT-NH2 [AIB2, AIB16, A18, D28, Lys10 γE-C16 (SEQ ID NO: 656)]	0.006
H[Aib]EGTFTSDK([γGlu-γGlu-Palmitoyl])SKYLDEQAAKEFIAWLMNT [Chi-2, AIB2, E3, Lys10 γE-γE-C16 (SEQ ID NO: 648)]	2.92
B4	0.003
XSQGTFTSDYSKYLDERRAKDFVQWLMNK (DMIA at position 1; E16/K20 lactam; C16 fatty acyl on Lys29 via γ-Glu spacer) [DMIA1, E16/K20 lactam, Lys29 γE-C16 (SEQ ID NO: 653)]	0.107
H[dS]QGTFTSDK([γGlu-Palmitoyl])SKYLDEQAAKEFIAWLMNT [Chi-2, d-Ser2, Lys10 γE-C16 (SEQ ID NO: 643)]	0.011
B5	46.1
B6	0.014
B7	0.014

Molecular target: T1, GLP-1 receptor (UniProt P43220 24-463, limits assumed)
Test: cell-based or functional assay

Binder	in vitro activity EC50
[DMIA]SQGTFTSDK([γGlu-Palmitoyl])SKYLDERRAKDFVQWLMNT (lactam 16-20; reading uncertain) [DMIA1, E16/K20 lactam, Lys10 γE-C16 (SEQ ID NO: 651)]	6 pM
H[dS]QGTFTSDK([γGlu-γGlu-Palmitoyl])SKYLDEQAAKEFIAWLMNT [Chi-2, d-Ser2, Lys10 γE-γE-C16 (SEQ ID NO: 644)]	3 pM
B1	10 pM
B2	1.4 pM
B3	70 pM
H[Aib]QGTFTSDK([γGlu-Palmitoyl])SKYLD[Aib]RAAQDFVQWLMDT-NH2 [AIB2, AIB16, A18, D28, Lys10 γE-C16 (SEQ ID NO: 656)]	4 pM
H[Aib]EGTFTSDK([γGlu-γGlu-Palmitoyl])SKYLDEQAAKEFIAWLMNT [Chi-2, AIB2, E3, Lys10 γE-γE-C16 (SEQ ID NO: 648)]	4 pM
B4	4 pM
XSQGTFTSDYSKYLDERRAKDFVQWLMNK (DMIA at position 1; E16/K20 lactam; C16 fatty acyl on Lys29 via γ-Glu spacer) [DMIA1, E16/K20 lactam, Lys29 γE-C16 (SEQ ID NO: 653)]	75 pM
H[dS]QGTFTSDK([γGlu-Palmitoyl])SKYLDEQAAKEFIAWLMNT [Chi-2, d-Ser2, Lys10 γE-C16 (SEQ ID NO: 643)]	1.4 pM
B5	5 pM
B6	24 pM and 44 pM
B7	1.8 pM
[DMIA]SQGTFTSDK([γGlu-γGlu-Palmitoyl])SKYLDERRAKDFVQWLMNT (lactam 16-20; reading uncertain) [DMIA1, E16/K20 lactam, Lys10 γE-γE-C16 (SEQ ID NO: 652)]	4 pM

Molecular target: T1, GLP-1 receptor
Test: cell-based or functional assay
Remark: another data set of the same source

Binder	cAMP EC50 [nM]
H[Aib]QGTFTSDK([Ala-Ala-Palmitoyl])SKYLD[Aib]RRAQDFVQWLMNT-NH2 [Peptide 82 (Table 22, SEQ ID NO: 564)]	0.108
H[Aib]QGTFTSDK([γGlu-γGlu-Palmitoyl])SKYLD[Aib]RRAQDFVQWLMNT-NH2 [Peptide 83 (Table 22, SEQ ID NO: 565)]	0.043
